For experiment [1], the target named is recombinant human FAP protein (Sino Biological, Cat# 10464-H07H) (human) (UniProt Q12884). As to the kind of experiment: ELISA on immobilized human FAP; antibody stored at 40 °C for 2 weeks, relative to 0 weeks.
In experiment [2] the target is T1, human FAP protein expressed on 293T cells (293T-human FAP) (human, UniProt Q12884 1-760).
T1 sequence: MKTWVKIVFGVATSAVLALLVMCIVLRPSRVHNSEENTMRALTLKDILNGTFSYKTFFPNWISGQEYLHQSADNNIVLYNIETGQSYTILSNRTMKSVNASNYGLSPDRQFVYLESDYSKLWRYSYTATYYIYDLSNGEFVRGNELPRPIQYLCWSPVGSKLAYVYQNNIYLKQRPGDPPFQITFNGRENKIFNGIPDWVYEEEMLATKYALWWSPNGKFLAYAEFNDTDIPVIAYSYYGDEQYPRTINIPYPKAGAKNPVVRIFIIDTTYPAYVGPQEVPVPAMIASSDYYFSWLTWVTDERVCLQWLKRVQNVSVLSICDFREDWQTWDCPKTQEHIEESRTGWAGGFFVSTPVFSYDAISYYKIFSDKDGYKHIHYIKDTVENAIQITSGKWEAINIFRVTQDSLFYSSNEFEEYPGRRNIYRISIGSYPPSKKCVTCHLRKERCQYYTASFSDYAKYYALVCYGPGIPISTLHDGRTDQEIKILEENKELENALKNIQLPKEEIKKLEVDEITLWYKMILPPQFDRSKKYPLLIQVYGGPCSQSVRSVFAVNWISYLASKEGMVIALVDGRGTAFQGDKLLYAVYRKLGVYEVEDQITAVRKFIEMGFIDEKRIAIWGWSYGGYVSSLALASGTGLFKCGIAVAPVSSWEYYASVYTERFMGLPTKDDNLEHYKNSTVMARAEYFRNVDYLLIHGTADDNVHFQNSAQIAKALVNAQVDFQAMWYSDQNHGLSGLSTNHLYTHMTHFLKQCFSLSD
Briefly: flow cytometry on 293T-human FAP cells.

For experiment [3], the target named is recombinant human FAP protein (Sino Biological, Cat# 10464-H07H) (human) (UniProt Q12884). As to the kind of experiment: ELISA on immobilized human FAP; antibody stored at 40 °C for 0 weeks.
For experiment [4] the target is unchanged. As to the kind of experiment: ELISA on immobilized human FAP; antibody stored at 40 °C for 4 weeks, relative to 0 weeks. On the technique in general: ELISA stands for enzyme-linked immunosorbent assay.
Experiment [5] concerns the target T2, cynomolgus FAP protein expressed on 293T cells (293T-cynomolgus FAP) (cynomolgus, UniProt Q12884 1-760 (human entry)).
T2 sequence: T1 sequence with S29P, V261F, E417D
Briefly: flow cytometry on 293T-cynomolgus FAP cells. (In general: In flow cytometry, cells or beads pass a laser one at a time.)

Experiment [6] deals with T3, recombinant human FAP protein (Sino Biological, Cat# 10464-H07H) (human, UniProt Q12884 26-760).
T3 construct: Bought protein
T3 sequence: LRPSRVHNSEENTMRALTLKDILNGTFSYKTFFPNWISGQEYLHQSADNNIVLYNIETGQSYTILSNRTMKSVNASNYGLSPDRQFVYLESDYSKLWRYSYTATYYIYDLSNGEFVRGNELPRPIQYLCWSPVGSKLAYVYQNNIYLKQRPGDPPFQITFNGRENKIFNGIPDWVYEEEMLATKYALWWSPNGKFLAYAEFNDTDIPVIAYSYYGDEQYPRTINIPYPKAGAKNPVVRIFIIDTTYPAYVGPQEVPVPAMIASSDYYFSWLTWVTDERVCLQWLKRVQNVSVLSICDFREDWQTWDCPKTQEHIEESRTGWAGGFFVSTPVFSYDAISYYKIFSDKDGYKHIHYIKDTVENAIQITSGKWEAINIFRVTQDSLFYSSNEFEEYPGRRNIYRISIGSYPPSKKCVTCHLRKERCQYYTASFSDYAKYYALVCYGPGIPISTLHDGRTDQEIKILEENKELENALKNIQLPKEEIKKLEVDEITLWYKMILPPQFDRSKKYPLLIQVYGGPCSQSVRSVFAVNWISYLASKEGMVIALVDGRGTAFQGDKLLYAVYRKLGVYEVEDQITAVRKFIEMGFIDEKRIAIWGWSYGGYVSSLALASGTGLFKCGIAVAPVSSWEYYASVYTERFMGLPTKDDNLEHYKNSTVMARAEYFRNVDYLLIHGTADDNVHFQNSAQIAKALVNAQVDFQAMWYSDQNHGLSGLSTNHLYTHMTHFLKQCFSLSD
Briefly: ELISA, human FAP protein immobilized on plate.

From patent EP4578877A1 (Nanjing Leads Biolabs Co., Ltd., dated 2025) come the findings set out here.

Positions count from the first letter of the chain named. Numbers in names are those of the source.

B1: humanized anti-FAP antibody huF19-LG (antibody, human IgG1, kappa, V domains shown)
VH: QVQLVQSGAEVKKPGASVKVSCKASGYTFTEYTIHWVRQATGQGLEWIGGINPNNGIPNYNQKFKGRATMTVGTSISTAYMELSSLRSEDTAVYFCARRRIAYGYDEGHAMDYWGQGTLVTVSS
VL: DIQMTQSPSSLSASVGDRVTITCKSSQSLLYSRNQKNYLAWFQQKPGKAPKLLIFWASTRESGVPSRFTGSGFGTDFTLTISSLQPEDFATYYCQQYFSYPLTFGQGTKLEIKR
notes: Full-length human IgG1/kappa; expressed in ExpiCHO-S
B1: the ELISA Relative activity amounted to 93.8% in experiment [1], 100% in experiment [3] and 89.9% in experiment [4]. The binding result in experiment [2] and in experiment [5] was “binds” each time.

B2: sibrotuzumab (humanized reference anti-FAP antibody) (antibody, human IgG1, kappa, V domains shown)
VH: B1 VH with A24T, G26R, T41P, G44R, A68V, M70I, G73D, I76A, F95Y
VL: DIVMTQSPDSLAVSLGERATINCKSSQSLLYSRNQKNYLAWYQQKPGQPPKLLIFWASTRESGVPDRFSGSGFGTDFTLTISSLQAEDVAVYYCQQYFSYPLTFGQGTKVEIKR
notes: Full-length human IgG1/kappa
For B2, the binding result in experiment [2], in experiment [6] and in experiment [5] was “binds” throughout.

B3: mutant humanized FAP antibody huF19-LG-NGR (antibody, human IgG1, kappa, V domains shown)
VH: B1 VH with G56R
VL: B1 VL
notes: huF19-LG with G56R (Kabat) in HCDR2; also called optimized FAP antibody
B3: the binding result in experiment [2] and in experiment [5] was “binds” throughout.
